Laboratory results from article PMC7279889, “FMRP promotes RNA localization to neuronal projections through interactions between its RGG domain and G-quadruplex RNA sequences”.

Key:
FMRP RGG domain = FMRP RGG domain (Mus musculus, UniProt P35922 478-614); experiment: fluorescence polarization; 150 mM KCl; FP: 10 mM Tris-HCl (pH not stated), 150 mM KCl or LiCl, 5% glycerol, 10 nM RNA, protein 2 nM-1 uM, 5 min at 25 C, read at 26-27 C; conditions: protein: recombinant; tags: GST-SBP (N-terminal, pGEX6); label: 3' 6-FAM; G4 intramolecular (folded in KCl)
[1] = target: FMRP KH domains (two KH domains) (Mus musculus, UniProt P35922 222-315); experiment: fluorescence polarization; binding never detected; method and salt implied; FP: 10 mM Tris-HCl (pH not stated), 150 mM KCl or LiCl, 5% glycerol, 10 nM RNA, protein 2 nM-1 uM, 5 min at 25 C, read at 26-27 C; conditions: protein: recombinant; tags: GST-SBP (N-terminal, pGEX6); label: 3' 6-FAM; G4 intramolecular (folded in KCl)

GGGAGGGAGGGAGGGUA (structured_RNA) [rG4]
Kd (FMRP RGG domain): ~0.03 µM | binding result [1]: no binding
